Target: JNK-2 (human (endogenous in HUVEC), UniProt P45984 1-424)
Test: co-IP

B1: NFATc2 (natural protein)
chain: MNAPERQPQPDGGDAPGHEPGGSPQDELDFSILFDYEYLNPNEEEPNAHKVASPPSGPAYPDDVLDYGLKPYSPLASLSGEPPGRFGEPDRVGPQKFLSAAKPAGASGLSPRIEITPSHELIQAVGPLRMRDAGLLVEQPPLAGVAASPRFTLPVPGFEGYREPLCLSPASSGSSASFISDTFSPYTSPCVSPNNGGPDDLCPQFQNIPAHYSPRTSPIMSPRTSLAEDSCLGRHSPVPRPASRSSSPGAKRRHSCAEALVALPPGASPQRSRSPSPQPSSHVAPQDHGSPAGYPPVAGSAVIMDALNSLATDSPCGIPPKMWKTSPDPSPVSAAPSKAGLPRHIYPAVEFLGPCEQGERRNSAPESILLVPPTWPKPLVPAIPICSIPVTASLPPLEWPLSSQSGSYELRIEVQPKPHHRAHYETEGSRGAVKAPTGGHPVVQLHGYMENKPLGLQIFIGTADERILKPHAFYQVHRITGKTVTTTSYEKIVGNTKVLEIPLEPKNNMRATIDCAGILKLRNADIELRKGETDIGRKNTRVRLVFRVHIPESSGRIVSLQTASNPIECSQRSAHELPMVERQDTDSCLVYGGQQMILTGQNFTSESKVVFTEKTTDGQQIWEMEATVDKDKSQPNMLFVEIPEYRNKHIRTPVKVNFYVINGKRKRSQPQHFTYHPVPAIKTEPTDEYDPTLICSPTHGGLGSQPYYPQHPMVAESPSCLVATMAPCQQFRTGLSSPDARYQQQNPAAVLYQRSKSLSPSLLGYQQPALMAAPLSLADAHRSVLVHAGSQGQSSALLHPSPTNQQASPVIHYSPTNQQLRCGSHQEFQHIMYCENFAPGTTRPGPPPVSQGQRLSPGSYPTVIQQQNATSQRAAKNGPPVSDQKEVLPAGVTIKQEQNLDQTYLDDVNEIIRKEFSGPPARNQT
fold increase of association by PEDF combined with VEGF or bFGF: > 20 fold
